Results taken from patent US20210230244A1 (NATIONAL INSTITUTE OF IMMUNOLOGY, published 2021).
Bridge positions count the residues as written; N and C are the ends. Ends that are not written are not given here.

Molecular target: T1, Abeta 1-42 peptide
T1 construct: Used at 100 micromolar in PBS pH 7.4 at 37 C, where it aggregates into oligomers and fibrils, so it was not a defined monomer in the assays; also called Abeta42; Abeta 42
Test: Glu-OC (25 ng-0.1 ng) incubated with 100 micromolar Abeta42; A11 reactivity and AFM

T1 sequence (peptide, as listed by the source): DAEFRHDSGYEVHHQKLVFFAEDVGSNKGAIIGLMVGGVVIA

B1: undercarboxylated osteocalcin (peptide)
peptide: YLYQWLGAPVPYPDPLEPRREVCELNPDCDELADHIGFQEAYRRFYGPV
modifications: disulfide 23-29
notes: also called Glu-OC; uncarboxylated osteocalcin
binding result: binds
